Data taken from patent EP1169642B1.

Molecular target: purified human complement Factor H (human) (UniProt P08603)
Test: steady state fluorescence titration of purified human Factor H

Chain of purified human complement Factor H (human) (P08603 19-1231 limits assumed): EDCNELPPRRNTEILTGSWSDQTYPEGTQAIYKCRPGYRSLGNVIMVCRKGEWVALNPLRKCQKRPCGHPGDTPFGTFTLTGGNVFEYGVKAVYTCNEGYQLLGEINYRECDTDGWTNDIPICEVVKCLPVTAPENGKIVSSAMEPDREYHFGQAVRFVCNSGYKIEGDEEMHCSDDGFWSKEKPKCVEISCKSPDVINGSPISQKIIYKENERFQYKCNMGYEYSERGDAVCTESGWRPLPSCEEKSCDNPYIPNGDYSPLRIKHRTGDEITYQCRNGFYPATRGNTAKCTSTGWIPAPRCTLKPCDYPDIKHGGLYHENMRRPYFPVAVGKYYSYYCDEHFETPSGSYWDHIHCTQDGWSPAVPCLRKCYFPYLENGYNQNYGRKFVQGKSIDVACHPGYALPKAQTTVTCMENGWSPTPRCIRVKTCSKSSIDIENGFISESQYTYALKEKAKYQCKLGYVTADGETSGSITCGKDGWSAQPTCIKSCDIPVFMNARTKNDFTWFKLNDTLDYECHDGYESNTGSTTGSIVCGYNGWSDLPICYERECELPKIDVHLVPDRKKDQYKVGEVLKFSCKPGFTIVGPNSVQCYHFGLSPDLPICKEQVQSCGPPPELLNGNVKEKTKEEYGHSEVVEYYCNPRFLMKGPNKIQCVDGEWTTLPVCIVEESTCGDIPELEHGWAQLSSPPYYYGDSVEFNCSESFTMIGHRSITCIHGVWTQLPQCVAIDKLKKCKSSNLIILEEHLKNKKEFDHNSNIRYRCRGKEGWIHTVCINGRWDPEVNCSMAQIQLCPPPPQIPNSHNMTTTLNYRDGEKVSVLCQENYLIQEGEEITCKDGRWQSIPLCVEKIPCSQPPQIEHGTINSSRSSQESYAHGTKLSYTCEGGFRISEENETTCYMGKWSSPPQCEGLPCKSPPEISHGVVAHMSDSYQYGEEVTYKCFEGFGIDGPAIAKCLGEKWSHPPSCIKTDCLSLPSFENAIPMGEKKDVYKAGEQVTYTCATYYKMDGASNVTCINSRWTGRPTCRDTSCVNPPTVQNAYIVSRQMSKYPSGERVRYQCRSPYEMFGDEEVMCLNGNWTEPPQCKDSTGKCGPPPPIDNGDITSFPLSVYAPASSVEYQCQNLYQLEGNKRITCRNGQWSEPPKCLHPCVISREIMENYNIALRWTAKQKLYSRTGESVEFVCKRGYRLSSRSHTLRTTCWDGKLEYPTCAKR

recombinant osteopontin (rOPN) (from UniProt P10451 17-314) (ligand)
stoichiometry (OPN:Factor H): 1 molar ratio
